Measured values from US20250043302A1, “MUTATED HYDROXYPHENYLPYRUVATE DIOXYGENASE POLYPEPTIDE, AND CODING GENE AND USE THEREOF” (BEIJING DABEINONG BIOTECHNOLOGY CO., LTD., priority 2021, published 2025).

Legend:
Assay type in all cases: in vivo
[1] = tested on: Arabidopsis thaliana T1 plants; test: Topramezone tolerance of transgenic Arabidopsis thaliana T1 plants (spray, bleached leaf area grade, damage score); details: Table 10; for Classification and statistics of the grade of pesticide damage Grade 0: number of plants at grade 0; for Classification and statistics of the grade of pesticide damage Grade 1: number of plants at grade 1; for Classification and statistics of the grade of pesticide damage Grade 2: number of plants at grade 2; for Classification and statistics of the grade of pesticide damage Grade 3: number of plants at grade 3; for Scores: pesticide damage score
Procedure, shortened: (§1)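 T1 transformants selected by glufosinate; 18-day-old plants, with empty-vector and wild-type controls, sprayed with topramezone (25–200 g ai/ha), isoxaflutole (35–280 g ai/ha) or mesotrione (52.5–420 g ai/ha), water as 0×. Bleached leaf area fraction scored at 7 DAT as grades 0–3.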

[2] = tested on: Arabidopsis thaliana T1 plants; test: Isoxaflutole tolerance of transgenic Arabidopsis thaliana T1 plants (spray, bleached leaf area grade, damage score); details: Table 11; for Classification and statistics of the grade of pesticide damage Grade 0: number of plants at grade 0; for Classification and statistics of the grade of pesticide damage Grade 1: number of plants at grade 1; for Classification and statistics of the grade of pesticide damage Grade 2: number of plants at grade 2; for Classification and statistics of the grade of pesticide damage Grade 3: number of plants at grade 3; for Scores: pesticide damage score;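 for Scores: Weighted damage index from 0 to 100 where higher means more damage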
Procedure, shortened: as §1

[3] = tested on: Arabidopsis thaliana T1 plants; test: Mesotrione tolerance of transgenic Arabidopsis thaliana T1 plants (spray, bleached leaf area grade, damage score); set-up: Scores: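 damage score 0-100 computed as Σ(N×S)/(T×M)×100 over grades 0-3 with higher meaning more damage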; details: Table 12; for Classification and statistics of the grade of pesticide damage Grade 0: number of plants at grade 0; for Classification and statistics of the grade of pesticide damage Grade 1: number of plants at grade 1; for Classification and statistics of the grade of pesticide damage Grade 2: number of plants at grade 2; for Classification and statistics of the grade of pesticide damage Grade 3: number of plants at grade 3; for Scores: pesticide damage score
Procedure, shortened: as §1

B1: HPPDm-2-02: nucleotide sequence encoding Avena sativa HPPD with A111T+F372A+F383W; vector DBN11783 (nucleic acid)
DNA: ATGCCACCTACTCCAGCTACAGCTACTGGTGCTGCTGCTGCTGCCGTTACTCCTGAGCACGCTGCCAGGTCATTCCCCAGGGTGGTTCGCGTGAACCCCAGATCTGATAGGTTCCCAGTTCTGAGCTTCCACCATGTTGAGCTGTGGTGCGCTGATGCTGCTTCTGCTGCTGGCAGGTTCTCTTTCGCTCTTGGTGCTCCACTCGCTGCTAGATCTGATCTGTCTACAGGAAATAGCGCTCATGCCTCACTCCTGCTTCGCTCAGGTGCTTTGGCCTTCCTCTTCACCGCTCCATATGCTCCCCCACCTCAGGAGGCTGCTACTGCTGCTACTACAGCCTCCATTCCAAGCTTCTCAGCTGATGCCGCTAGAACCTTCGCTGCTGCTCATGGACTTGCCGTGAGGTCTGTTGGTGTTCGCGTGGCTGATGCTGCTGAGGCTTTCAGAGTTTCCGTTGCCGGCGGAGCTAGGCCAGCTTTCGCTCCTGCTGATTTGGGACATGGTTTCGGCCTGGCTGAGGTTGAGCTTTACGGTGACGTGGTTCTCCGCTTCGTGTCTTACCCAGATGAGACTGACCTGCCTTTCCTTCCCGGCTTCGAGAGAGTTTCCTCTCCTGGTGCCGTGGATTACGGCCTGACAAGGTTCGACCACGTGGTTGGAAACGTTCCCGAGATGGCTCCAGTGATCGATTACATGAAGGGCTTCCTTGGATTCCATGAGTTCGCCGAGTTCACTGCTGAGGACGTGGGAACCACTGAGTCCGGTTTGAACTCTGTGGTTCTCGCCAACAATTCTGAGGCTGTTTTGCTCCCTCTGAATGAGCCTGTGCATGGAACCAAGAGGAGAAGCCAGATTCAAACTTACCTGGAGTACCACGGTGGCCCTGGAGTTCAGCATATCGCCCTTGCTTCTAATGATGTGTTGCGCACACTCAGAGAGATGCGCGCCAGAACCCCCATGGGAGGTTTCGAGTTCATGGCCCCACCACAGGCTAAGTACTACGAGGGCGTTAGAAGGATTGCTGGAGACGTGTTGAGCGAGGAGCAGATCAAGGAGTGCCAAGAGCTGGGTGTTCTTGTGGATAGGGATGACCAGGGCGTTCTGCTTCAAATTGCCACTAAGCCAGTGGGCGACCGCCCTACATTCTGGCTTGAGATGATTCAAAGAATCGGCTGCATGGAGAAGGATGAGGTTGGACAGGAGTACCAAAAGGGCGGATGCGGTGGCTTCGGAAAGGGTAACTTCAGCGAGTTGTTCAAGTCAATCGAGGACTACGAGAAGAGCCTCGAGGTGAAGCAGTCAGTGGTTGCCCAAAAGTCCTGA
modifications: HPPDm-2-02 Nucleotide Sequence
notes: vector DBN11783
[1]; topramezone 100 g ai/ha (4×)
  Resistance evaluation: Highly resistant
  Classification and statistics of the grade of pesticide damage Grade 0: 16
  Classification and statistics of the grade of pesticide damage Grade 1: 0
  Classification and statistics of the grade of pesticide damage Grade 2: 0
  Classification and statistics of the grade of pesticide damage Grade 3: 0
  Scores: 0
[1]; topramezone 200 g ai/ha (8×)
  Resistance evaluation: Highly resistant
  Classification and statistics of the grade of pesticide damage Grade 0: 16
  Classification and statistics of the grade of pesticide damage Grade 1: 0
  Classification and statistics of the grade of pesticide damage Grade 2: 0
  Classification and statistics of the grade of pesticide damage Grade 3: 0
  Scores: 0
[2]; isoxaflutole 140 g ai/ha (2×)
  Resistance evaluation: Highly resistant
  Classification and statistics of the grade of pesticide damage Grade 0: 16
  Classification and statistics of the grade of pesticide damage Grade 1: 0
  Classification and statistics of the grade of pesticide damage Grade 2: 0
  Classification and statistics of the grade of pesticide damage Grade 3: 0
  Scores: 0
[2]; isoxaflutole 280 g ai/ha (4×)
  Resistance evaluation: Highly resistant
  Classification and statistics of the grade of pesticide damage Grade 0: 12
  Classification and statistics of the grade of pesticide damage Grade 1: 3
  Classification and statistics of the grade of pesticide damage Grade 2: 1
  Classification and statistics of the grade of pesticide damage Grade 3: 0
  Scores: 10
[3]; mesotrione 210 g ai/ha (2×)
  Resistance evaluation: Highly resistant
  Classification and statistics of the grade of pesticide damage Grade 0: 16
  Classification and statistics of the grade of pesticide damage Grade 1: 0
  Classification and statistics of the grade of pesticide damage Grade 2: 0
  Classification and statistics of the grade of pesticide damage Grade 3: 0
  Scores: 0
[3]; mesotrione 420 g ai/ha (4×)
  Resistance evaluation: Highly resistant
  Classification and statistics of the grade of pesticide damage Grade 0: 14
  Classification and statistics of the grade of pesticide damage Grade 1: 2
  Classification and statistics of the grade of pesticide damage Grade 2: 0
  Classification and statistics of the grade of pesticide damage Grade 3: 0
  Scores: 4
